We go through one molecule from patent US20090081238A1 (Genentech, published 2009).

The target of assay [1] is human Notch1 (on NIH-3T3 cells) (human, UniProt P46531 19-2555). The experiment in a line: cell-based or functional assay.
Assay [2] has as its target T1, hFLAG-EGF34+NRR-His6 (101V), the human Notch1 NRR immunogen (Notch1 V1307-Q1733) (human, UniProt P46531 1307-1733).
T1 construct: also called hNotch1 NRR; human NRR1
The experiment in a line: SPR (BIAcore-3000), IgG captured by anti-human IgG, NRR1-ECD injected 3.9-500 nM, 25 C. As for the experimental part: (§1) To further characterize the binding affinity and binding kinetics of the anti-Notch1 NRR Mabs, surface plasmon resonance (SRP) measurement with a BIAcore™-3000 was used (BIAcore, Inc., Piscataway, N.J.). Briefly, carboxymethylated dextran biosensor chips (CM5, BIAcore Inc.) were activated with N-ethyl-N′-(3-dimethylaminopropyl)-carbodiimide hydrochloride (EDC) and N-hydroxysuccinimide (NHS) according to the supplier's instructions. Rabbit anti human antibody (Pierce) was diluted with 100 mM sodium acetate, pH 4.8, into 20 μg/ml before injection at a flow rate of 5 μl/minute to achieve approximately 3000 response units (RU) of coupled antibody. Next, 1M ethanolamine was injected to block unreacted groups. Anti-NRR1 mab (formatted as a full-length IgG) was captured by rabbit anti-human IgG coated on the chips to achieve approximately 200 response units (RU). For kinetics measurements, two-fold serial dilutions of human NRR1-ECD or murine NRR1-ECD proteins (3.9 nM to 500 nM) were injected in PBT buffer (PBS with 0.05% Tween 20) at 25° C. with a flow rate of 30 μl/min. Association rates (kₒₙ) and dissociation rates (koff) were calculated using a simple one-to-one Langmuir binding model (BIAcore Evaluation Software version 3.2). The equilibrium dissociation constant (KD) was calculated as the ratio koff/kₒₙ.
Background: In SPR one partner is held on a chip, and binding of the other changes the refractive index at the surface.

Assay [3] has as its target T2, mFLAG-EGF34+NRR-His6, the mouse Notch1 NRR immunogen (Notch1 V1307-Q1723) (mouse, UniProt Q01705 1307-1723).
T2 construct: the rest carries an N-terminal FLAG tag and a C-terminal His tag; also called mNotch1 NRR; murine NRR1
Described as above. As to the method: as §1

Assay [4] addresses mEGF34+NRR-L1597H-FLAG-TEV-Fc (mouse) (UniProt Q01705). The experiment in a line: ELISA, target coated on the plate at 1 ug/ml, IgG titrated in 3-fold steps, detected with peroxidase anti-human Fab; A630. In general terms: ELISA stands for enzyme-linked immunosorbent assay.
The target of another assay is T3, murine Notch4 NRR (mouse, UniProt P31695 1168-1443, limits assumed).
T3 construct: domain: NRR; Construct not described; also called mouse NRR4
T3 sequence (looked up): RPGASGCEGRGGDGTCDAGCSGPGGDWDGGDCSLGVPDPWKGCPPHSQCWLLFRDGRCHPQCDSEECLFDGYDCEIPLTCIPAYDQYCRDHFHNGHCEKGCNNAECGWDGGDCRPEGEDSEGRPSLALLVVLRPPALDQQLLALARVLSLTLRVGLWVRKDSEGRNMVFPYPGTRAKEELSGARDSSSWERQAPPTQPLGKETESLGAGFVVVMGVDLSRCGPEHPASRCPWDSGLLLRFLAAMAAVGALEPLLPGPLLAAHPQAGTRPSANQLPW
The assay can be described thus: cross-reactivity test of the IgG (method not detailed).

In a further assay the target is T4, human Notch4 NRR (human, UniProt Q99466 1172-1447, limits assumed).
T4 construct: domain: NRR; Construct not described; also called human NRR4
T4 sequence (looked up): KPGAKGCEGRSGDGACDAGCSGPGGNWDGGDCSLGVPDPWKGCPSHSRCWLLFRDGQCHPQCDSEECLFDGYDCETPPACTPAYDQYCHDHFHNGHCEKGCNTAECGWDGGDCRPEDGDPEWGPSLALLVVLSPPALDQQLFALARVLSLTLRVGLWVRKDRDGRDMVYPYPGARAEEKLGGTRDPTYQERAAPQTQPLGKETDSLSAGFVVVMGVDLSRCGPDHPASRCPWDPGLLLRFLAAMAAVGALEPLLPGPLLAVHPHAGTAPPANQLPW
The assay is described as above.

In a further assay the target is T5, murine Notch3 NRR (mouse, UniProt Q61982 1379-1643, limits assumed).
T5 construct: domain: NRR; Construct not described; also called mouse NRR3
Described as above.

Another assay has as its target T6, human Notch2 NRR (human, UniProt Q04721 1425-1677).
T6 construct: domain: NRR; Construct not described; also called human NRR2
T6 sequence (looked up): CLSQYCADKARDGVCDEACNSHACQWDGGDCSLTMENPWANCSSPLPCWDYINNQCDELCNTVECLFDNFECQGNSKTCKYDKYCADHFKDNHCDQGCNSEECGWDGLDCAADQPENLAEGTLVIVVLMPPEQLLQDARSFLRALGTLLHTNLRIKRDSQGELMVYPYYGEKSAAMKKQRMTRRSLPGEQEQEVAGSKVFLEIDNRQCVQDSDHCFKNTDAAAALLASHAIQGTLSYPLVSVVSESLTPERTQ
Described as above.

A further assay deals with T7, human Notch3 NRR (human, UniProt Q9UM47 1378-1643, limits assumed).
T7 construct: domain: NRR; Construct not described; also called human NRR3
Described as above.

The next assay concerns the target T8, murine Notch2 NRR (mouse, UniProt O35516 1425-1679).
T8 construct: domain: NRR; Construct not described; also called mouse NRR2
T8 sequence (looked up): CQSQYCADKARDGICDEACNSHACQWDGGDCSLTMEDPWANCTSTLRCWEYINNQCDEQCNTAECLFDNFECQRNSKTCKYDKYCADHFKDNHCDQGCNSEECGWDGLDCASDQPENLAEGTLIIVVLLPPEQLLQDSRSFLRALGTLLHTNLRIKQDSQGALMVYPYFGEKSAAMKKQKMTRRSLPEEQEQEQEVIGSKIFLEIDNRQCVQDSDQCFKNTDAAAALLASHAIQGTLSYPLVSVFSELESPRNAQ
Described as above.

Assay [5] has as its target T1, hFLAG-EGF34+NRR-His6 (101V), the human …. The experiment in a line: ELISA, target coated on the plate at 1 ug/ml, IgG titrated in 3-fold steps, detected with peroxidase anti-human Fab; A630. As for the experimental part:
(§2) 1 μg/ml of proteins in PBS, pH 7.4, were coated on ELISA plates (Nunc Maxisorp) at 4° C. overnight. Plates were blocked with Casein blocker in PBS (phosphate buffered saline; Pierce) for one hour at room temperature. Serial 3-fold dilutions of anti Notch1 NRR IgGs or irrelevant IgG in PBST buffer (PBT buffer (PBS+0.05% (v/v) Tween 20) with 0.5% (w/v) BSA) were added to the plates and incubated for one hour at room temperature. The plates were then washed with PBST and bound antibodies were detected with peroxidase-conjugated goat anti human Fab specific IgG (Sigma). TMB substrate (3,3′,5,5′-etramethylbenzidine) was used and absorbance at 650 nm was read using a standard ELISA plate reader. Absorbance was plotted against concentrations of IgGs using KaleidaGraph (Synergy Software).

Assay [6] has as its target T2, mFLAG-EGF34+NRR-His6, the mouse Notch1 …. The description is as above. As to the method: as §2
The target in a further assay is T9, hFLAG-NRR-His6 (102V) (human, UniProt P46531 1447-1733).
T9 construct: no EGF-like repeats; not shown: FLAG tag; thrombin cleavage site and HIS tag
Described as above. As to the method:
as §2

T2 sequence (Q01705 other isoform, or with tags, fused parts or gaps): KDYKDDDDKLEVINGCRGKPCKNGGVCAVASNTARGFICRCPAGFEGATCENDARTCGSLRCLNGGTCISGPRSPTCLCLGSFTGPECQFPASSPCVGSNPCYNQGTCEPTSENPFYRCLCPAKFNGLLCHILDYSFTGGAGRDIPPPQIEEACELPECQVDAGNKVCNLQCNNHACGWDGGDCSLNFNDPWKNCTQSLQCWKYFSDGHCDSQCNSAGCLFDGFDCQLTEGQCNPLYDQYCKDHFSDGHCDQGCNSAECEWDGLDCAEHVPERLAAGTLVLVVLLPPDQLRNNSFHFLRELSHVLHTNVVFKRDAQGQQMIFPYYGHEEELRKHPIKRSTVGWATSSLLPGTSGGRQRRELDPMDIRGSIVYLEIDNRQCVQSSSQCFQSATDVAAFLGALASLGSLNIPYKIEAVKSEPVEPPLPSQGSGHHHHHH
T5 sequence (Q61982 1379-1643 limits assumed): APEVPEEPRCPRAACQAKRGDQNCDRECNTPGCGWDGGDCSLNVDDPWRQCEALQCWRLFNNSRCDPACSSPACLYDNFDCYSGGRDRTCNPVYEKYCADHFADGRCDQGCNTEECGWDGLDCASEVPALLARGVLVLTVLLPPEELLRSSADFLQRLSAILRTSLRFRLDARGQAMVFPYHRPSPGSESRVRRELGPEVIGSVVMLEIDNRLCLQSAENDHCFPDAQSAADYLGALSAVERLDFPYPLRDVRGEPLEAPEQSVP
T7 sequence (Q9UM47 1378-1643 limits assumed): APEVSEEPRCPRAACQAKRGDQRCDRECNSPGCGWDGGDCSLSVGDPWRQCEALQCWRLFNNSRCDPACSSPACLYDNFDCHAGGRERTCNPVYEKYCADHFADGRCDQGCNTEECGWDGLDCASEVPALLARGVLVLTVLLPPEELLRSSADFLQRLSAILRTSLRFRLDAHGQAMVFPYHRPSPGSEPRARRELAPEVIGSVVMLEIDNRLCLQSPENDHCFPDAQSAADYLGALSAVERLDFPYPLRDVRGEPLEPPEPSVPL
mEGF34+NRR-L1597H-FLAG-TEV-Fc (mouse), sequence (Q01705 1307-1723, stated change not applied): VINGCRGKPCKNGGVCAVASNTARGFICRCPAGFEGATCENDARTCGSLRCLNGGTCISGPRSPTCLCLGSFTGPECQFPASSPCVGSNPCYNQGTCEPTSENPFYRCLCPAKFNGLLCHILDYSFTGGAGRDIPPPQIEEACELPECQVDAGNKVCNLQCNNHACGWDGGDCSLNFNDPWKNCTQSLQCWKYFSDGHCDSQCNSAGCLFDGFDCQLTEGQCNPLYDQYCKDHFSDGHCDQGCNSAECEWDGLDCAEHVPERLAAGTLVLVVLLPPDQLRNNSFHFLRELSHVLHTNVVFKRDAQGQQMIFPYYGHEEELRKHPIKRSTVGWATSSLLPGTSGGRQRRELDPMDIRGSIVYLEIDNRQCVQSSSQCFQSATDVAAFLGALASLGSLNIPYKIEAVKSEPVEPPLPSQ

B1: Antibody A (antibody, V domains shown)
VH: EVQLVESGGGLVQPGGSLRLSCAASGFTFSSYWIHWVRQAPGKGLEWVARINPSNGSTNYADSVKGRFTISADTSKNTAYLQMNSLRAEDTAVYYCARGSGFRWVMDYWGQGTLVTVSS
VL: DIQMTQSPSSLSASVGDRVTITCRASQDVSTAVAWYQQKPDGTVKLLIYSASFLYSGVPSRFSGSGSGTDFTLTISSLQPEDFATYYCQQSYTTPPTFGQGTKVEIKR
notes: Tested as full-length human IgG1 (hIgG1) made in CHO cells; also called anti-Notch1 NRR Antibody A; Antibody A-hIgG1
In general, Kd refers to the constant that tells how readily two partners part at equilibrium. Read a low Kd as higher affinity. As a reminder, the koff is the first-order rate constant of dissociation. Low readings indicate a long-lived complex, high ones a short-lived complex. One may read the kon as the second-order rate constant of association. A lower kon goes with slower complex formation. By EC50 (read off the curve) is commonly meant the concentration that produces a half-maximal response. B1: in assay [1], the “Co-culture blocking, IC50” value was around 0.1 µg/mL. For the same molecule, the Kd in [2] was found to be 134 nM; in assay [3], 231 nM. The off-rate (koff) in [2] was 0.011 s⁻¹; in [3] it was 0.021 s⁻¹. In addition, the results for the on-rate (kon) in assay [2] and in [3] were 82000 M⁻¹ s⁻¹ and 91000 M⁻¹ s⁻¹, respectively. The concentration for a half-maximal effect (EC50 (read off the curve)) in assay [4] is 0.04 µg/mL; in assay [5], around 0.07 µg/mL; in assay [6], around 0.05 µg/mL; with hFLAG-NRR-His6 (102V), around 0.07 µg/mL. The binding result in the assay with murine Notch4 NRR, with human Notch4 NRR, with murine Notch3 NRR, with human Notch2 NRR, with human Notch3 NRR and with murine Notch2 NRR was “no binding” each time.
